# Assay results reported in patent publication US20080113421A1, “Stabilizing proteins against denaturation and inactivation by charged detergents using chemical modifications, including modifications that increase net charge” (President and Fellows of Harvard College, priority 2006, published 2008).
# What was measured:
# [1] = Refolding of SDS-denatured protein by dilution or removal of SDS, monitored by DNSA fluorescence; format: physicochemical
# Protocol: Monitoring refolding of BCA and BCA-Ac18 was performed as follows. The proteins (10 micomolar) were denatured in 10 mM SDS for 24 h. […] Refolding was initiated by dilution of an aliquot of the denatured sample to a final concentration of protein of 200 nM, with varying concentrations of SDS in the buffer. Immediately prior to the measurement, an aliquot of renaturing protein was mixed with an equal aliquot of DNSA. The rate constants for renaturation were determined by fitting the data to FU=FUmax(1-e^−kt)+FUmin. The refolding experiments at 37° C. were performed similarly.
# The kinetics of refolding were determined as follows. The rates of refolding of BCA and BCA-Ac18 from the fully denatured states (in 10 mM SDS) were measured by dilution of the solutions into buffers containing concentrations of SDS from 0.1 to 2 mM, using the fluorescence of DNSA as a marker for the appearance of the folded state. […] As in denaturation studies, an aliquot of solution of the protein and SDS was mixed with an equal aliquot of solution of DNSA with the same amount of SDS immediately prior to the measurement to eliminate the possibility of DNSA influencing refolding kinetics. The buffer also contained 100 micromolar ZnSO4 to ensure that the folded protein could incorporate a Zn(II) cofactor.
# The raw data emphasize the decrease in the yield of folded protein with increasing concentration of SDS. […] The half-lives (t1/2) for renaturation were determined, where possible, by fitting the data to FU=FUmax(1-exp(−t/t1/2))+FUmin; the fits are shown (solid lines). The tables provide data for refolding in 0.1 and 0.4 mM SDS as well as for concentrations on the graphs for comparison. […] The error bars represent the difference between the average and the largest and smallest values measured from at least three replicate measurements.
# [2] = from solutions of GuHCl; cited from earlier work
# [3] = Unfolding (denaturation) of protein in SDS in Tris-Gly buffer, monitored by DNSA fluorescence; format: physicochemical
# Protocol: Monitoring unfolding of BCA and BCA-Ac18 was performed as follows. The proteins (200 nM) were incubated in different concentrations of SDS in Tris-Gly buffer. A 100 microliter aliquot of protein-SDS solution was mixed with 100 microliters of DNSA solution (30 micromolar) with the same concentration of SDS, and measured the intensity of fluorescence (Perkin-Elmer LS50B spectrometer, λex=280 nm, λem=460 nm) as a function of time. The denaturation of BCA was continuously monitored in concentrations of SDS above 4 mM. The rate constants were determined for denaturation by fitting the intensity vs. time data to FU=FUmaxe^−kt+FUmin. Unfolding experiments at 37° C. were performed similarly, with samples stored in a dry bath incubator (Fisher Scientific).
# The kinetics of unfolding were determined as follows. The rates of denaturation of BCA and BCA-Ac18 were measured by incubating the protein (200 nM) in solutions of different concentrations of SDS. Immediately prior to the measurement, an aliquot of solution containing protein and SDS was mixed with a solution containing DNSA and the same concentration of SDS; this protocol minimized the possibility that DNSA might stabilize the native conformation of the protein, and influence the rate of its denaturation. When BCA was denatured in concentrations of SDS of 4 mM and higher, DNSA was added to the original, denaturing solution because the rate of denaturation was too fast to follow with manual mixing of aliquots of protein and DNSA. It was observed that DNSA, when present with the protein in the denaturing solution, reduced the rates of denaturation by factors of about 2-10.
# FIG. 1 plots the fluorescence of DNSA, normalized to the signal at t=0, as a function of time of incubation of samples of BCA and BCA-Ac18 in various concentrations of SDS. The decrease in the intensity of fluorescence of DNSA, and thus in the amount of folded protein, followed first-order kinetics. Denaturation of proteins with surfactants probably proceeds through intermediates, but when using a marker that is specific to the folded active site of carbonic anhydrase, transitions beyond the initial unfolding of the three-dimensional structure of the protein were not detected.
# The tables list the half-lives (t1/2) for denaturation of BCA and BCA-Ac18 at several concentrations of SDS. The denaturation of BCA at 4 mM occurred very rapidly, and data are not shown to avoid overlap with data at 3.5 mM. The error bars represent the difference between the average and the largest and smallest values measured from at least three replicate measurements.
# [4] = Net charge of protein (capillary electrophoresis, charge ladder); format: physicochemical
# Protocol: BCA-Ac18 was synthesized by reacting the lysine residues of BCA with acetic anhydride in 100 mM HEPES buffer, pH 8.2. The N-terminus of BCA was acetylated posttranslationally. The final product contained ˜90% of BCA-Ac18 and 10% of BCA-Ac17, as determined by peak areas in an electropherogram from separation by capillary electrophoresis. The net charge of BCA in Tris-Gly buffer was about −3, and the net charge of BCA-Ac18 was about −19. It is believed that the difference in charge between BCA and BCA-Ac18 was less than 18 full units of charge due to charge regulation-adjustment of protonation states of other ionizable groups on the protein to counteract the increasing electrostatic potential on its surface.
# For any charge ladder of BCA, as the number of modifications (n) increases, the total charge on the protein becomes more negative, and the surface of the protein becomes more hydrophobic due to conversion of NH3^+ groups to NHCOR groups. Native BCA has a charge of ˜−2.9 at pH 8. The charge on the early rungs of the ladder increased linearly with the number of acylations; each rung adds an additional charge of ˜−0.9. Therefore, for example, BCA-Ac8 has a charge of ˜−10. The later rungs of the ladder may differ by <0.9 units of charge. Using the Linderstrom-Lang model of cooperativity in proton binding, the charge on BCA-Ac18 was calculated to be −19. The mobility of a given rung of BCA-Acn may have nearly the same mobility as the corresponding rung of BCA-Hexn. Thus, the charges of the BCA-Hexn may be indistinguishable from those of BCA-Acn for a given rung number. (Small deviations in mobility between later rungs of the two ladders may be due either to a change in charge or a change in drag between the two ladders. It can be assumed that any differences in the mobilities are due to additional drag from the hexanoyl groups relative to the acetyl groups.
substance,measurement,setting,value
bovine carbonic anhydrase II [BCA],concentration of SDS at which no refolded protein was observed,[1]; dilution from 10 mM SDS,≥ 800 µM
same,range of SDS concentrations in which protein neither refolds nor unfolds at an observable rate (window),[1]; time scales of a month,0.8 to 2 mM
same,refolding rate (given as time) after denaturation with SDS,[1]; upon complete removal of the SDS,11 ± 1 min
same,time constant of rate-limiting step in folding,[2],~10 min
same,t1/2 for denaturation,"[3]; 4 mM SDS, Tris-Gly buffer, with DNSA present during denaturation",15 s
same,t1/2 for denaturation,"[3]; 10 mM SDS, Tris-Gly buffer",< 5 s
same,denaturation in low concentrations of SDS,"[3]; SDS below 2 mM, long (~1 month) periods of time",no denaturation
same,concentration of SDS at which the protein denatures,"[3]; Tris-Gly buffer, CMC 4.3 mM",≥ 2500 µM
same,net charge,[4]; Tris-Gly buffer,about −3
same,charge,[4]; pH 8,~−2.9
